Source: the supplement of paper PMC10266784

B1: library; numbered along this chain (parent)
chain: MAAAAAAAAEQQSSNGPVKKSMREKAVERRSVNKEHNSNFKAGYIPIDEDRLHKTGLRGRKGNLAICVIILLFILAVINLIITLVIWAVIRIGPNGCDSMEFHESGLLRFKQVSDMGVIHPLYKSTVGGRRNENLVITGNNQPIVFQQGTTKLSVENNKTSITSDIGMQFFDPRTQNILFSTDYETHEFHLPSGVKSLNVQKASTERITSNATSDLNIKVDGRAIVRGNEGVFIMGKTIEFHMGGNMELKAENSIILNGSVMVSTTRLPSSSSGDQLGSGDWVRYKLCMCADGTLFKVQVTSQNMGCQISDNPCGNTH

Variants of: B1
Experiment: SGCB cell-surface expression functional score (HA stain, bin4 vs bin1, normalised to synonymous) (log10 ratio); higher = more cell-surface SGCB (functional)
Method: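 Deep mutational scan of full-length human SGCB (YFP-SGCB-HA, NNN codon sublibraries A-F) delivered by lentivirus at low MOI into ADG-HEK293 cells stably expressing SGCA, SGCD and SGCG. YFP-positive cells were stained for surface HA on unpermeabilized cells and FACS-sorted into bins. The functional score is log10(frequency in high bin 4 / frequency in low bin 1), normalised per chunk so that synonymous variants have mean 0 and SD 0.5. Scores are the median over codons and over duplicate biological replicates; scores below -0.5 are called non-functional. Scale: negative means deleterious.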

SGCB cell-surface expression functional score (log10): each site, then its substitutions
V85: G 0.11 | D -0.21 | E 0.35 | F -0.43 | A 0.3 | C -0.21
L84: Q 0.78 | N -0.44 | V 0.24 | T 0.17 | Y -0.41 | S 0.09 | D -0.05 | K 0.18 | R 0.08 | A 0 | H -0.4 | I 0.01 | W 0.4 | P 0.02 | C -0.21 | M 0.1 | G 0.24 | F -0.57 | E 0.26
T83: W -0.91 | H -0.43 | P -0.3 | A -0.17 | K -0.33 | E -0.18 | I 0.05 | M 0.14 | N 0.2 | G 0.04 | C -0.51 | L 0.1 | D -0.02 | Q 0.46 | F -0.77 | R -0.49 | V -0.11 | Y -0.43 | S -0.2
A76: T -0.35 | V 0 | R -0.35 | P -0.1 | Q 0.3 | S 0.05 | Y 0.25 | N 0.08 | W 0.14
I81: H 0.45 | K -0.06 | M -0.08 | C -0.06 | G 0 | T -0.23 | D 0.12 | V -0.03 | A 0.13 | Y -0.45 | S -0.14 | W -0.38 | P 0.12 | F -0.08 | R -0.73 | N 0.04 | E 0.31 | Q 0.03 | L 0.1
N79: R -0.8 | Y -0.74 | H -0.33 | A 0.21 | V 0 | F -0.85 | K -0.4 | P 0 | W -1.05 | M -0.67 | Q 0.29 | L -0.15 | D -0.24 | C 0.15 | T -0.23 | I -0.01 | S -0.15 | E 0.06 | G 0.06
L80: W 1.23 | K -0.07 | H -0.14 | M 0.32 | F -0.22 | A 0.19 | R -0.03 | G 0.19 | Y 0.27 | I -0.01 | S 0.2 | E -0.1 | Q -0.24 | N 0.12 | T 0.42 | P -0.3 | D -0.2 | V 0.26 | C 0.66
I78: V 0 | Q -0.47 | F -0.56 | K 0.05 | S -0.22 | E -0.45 | A 0.15 | M -0.34 | L -0.05 | T -0.02 | P -0.22 | R -0.54 | C -0.19 | N 0.19 | H 0.1 | D -0.1 | Y -0.68 | G -0.04 | W 0.33
I82: Q 0.28 | S -0.18 | P 0.22 | V 0.04 | F 0.01 | K 0.1 | E -0.49 | H 0.12 | G -0.2 | T -0.05 | R -0.66 | N -0.69 | D -0.85 | M -0.24 | L 0.07 | A 0.03 | C 0.11 | Y -0.15 | W -1.15
V77: P -0.24 | Q 0.33 | Y -0.22 | M 0.2 | L -0.16 | R -0.37 | T -0.07 | H -0.48 | G -0.14 | S -0.06 | I -0.12 | F 0.04 | N -0.21 | K -0.21 | A -0.12 | E -0.04 | D 0.07 | W -0.2 | C -0.11
